Here are results for 27 molecules from US7407939B2, “Protein kinase inhibitors comprising ATP mimetics conjugated to peptides or peptidomimetics” (CureGenics Ltd., priority 2001, dated 2008).

*1 amine or outer side, *2 acyl side, *3 side chain or, on linkers, in order; H or OH if unused. Where a SMILES comes first, the peptide text is derived from it. Where no end group is shown, it is not given here. Side-chain parts run from the residue outwards. [ ]: non-standard residue; d: D form. The star is where a group is joined. X1 = 5‑aminoethylsulfonamide isoquinoline, O=S(=O)(NCCN*)c1cccc2cnccc12; Isoquinoline5sulfonyl = O=S(=O)(c1cccc2cnccc12)*; X3 = O=C(OC[C@H](Cc1ccccc1)N[*:1])[*:2]; Ethylenediamine = C(CN[*:2])N[*:1]; hLeu = CC(C)CC[C@H](N)C(=O)O; Nle = CCCC[C@H](N)C(=O)O; Orn = NCCC[C@H](N)C(=O)O; Dab = NCC[C@H](N)C(=O)O; Nva = CCC[C@H](N)C(=O)O; Abu = CC[C@H](N)C(=O)O; Dap = NC[C@H](N)C(=O)O; Ph2 = not defined here; GlyNH2 = aminoglycine; βAla = NCCC(=O)O

In this assay the target is T1, PKB (Homo sapiens, UniProt P31749).
T1 construct: His; HA; made in house
The assay can be described thus: PKB in vitro kinase activity assay (soluble His-HA-PKB / SPA bead screening). The format is biochemical. The arrangement: % Inhibition PKB I / % Inhibition PKB II: concentration or dose not given beside the values. The following applies: for PKB-kinase (spa) Assay 1, % inhibition of kinase activity / PKB-kinase (spa) Assay 2, % inhibition of kinase activity: 1 μM compound concentration; for Activity PKB: Table 3, linear 7-mer peptides.

T1 sequence (P31749 whole entry, species assumed): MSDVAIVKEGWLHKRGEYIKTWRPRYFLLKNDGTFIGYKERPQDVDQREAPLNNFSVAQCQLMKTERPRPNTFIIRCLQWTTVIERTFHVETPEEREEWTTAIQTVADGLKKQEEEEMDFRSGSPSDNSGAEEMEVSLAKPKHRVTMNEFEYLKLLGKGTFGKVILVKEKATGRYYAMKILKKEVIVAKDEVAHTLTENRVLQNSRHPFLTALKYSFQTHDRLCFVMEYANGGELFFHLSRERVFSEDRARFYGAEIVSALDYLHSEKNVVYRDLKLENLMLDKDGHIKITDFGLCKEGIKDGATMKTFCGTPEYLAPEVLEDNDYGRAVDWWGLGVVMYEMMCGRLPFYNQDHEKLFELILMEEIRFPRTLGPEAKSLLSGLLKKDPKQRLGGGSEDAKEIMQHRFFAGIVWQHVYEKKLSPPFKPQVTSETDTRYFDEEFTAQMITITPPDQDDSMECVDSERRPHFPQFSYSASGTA
Experimental: The enzyme activity measurement is performed as described in the assay for PKA.
Kinase reaction was carried out in final volume of 50 μl. […] The kinase reaction was started by adding 10 μl of 2 μM cold ATP and 0.25 μCi of [γ^33P]-ATP in kinase buffer. The plates were incubated at 27° C. for 1 hr. At the end of the incubation the reaction was stopped by 200 μl of PBS containing 0.1% Triton X-100, 5 mM EDTA, 1 mM ATP and 0.3 mg/ml of Streptavidin-coated SPA bead (Amersham Pharmacia Biotech). After 15 min incubation at room temperature, the reaction mixtures were filtered using Packard GF/B 96-well plates. The plates were washed twice with 2M NaCl and 1% orthophosphoric acid followed by ethanol wash and 1 h air-dry. The radioactivity was counted using microplate counter Packard Top Count

As for “60020-74: Arg-Pro-Arg-Orn-Glu(bAla-5-aminoethylsulfonamide isoquinoline)-Dab-Hol (RPR[Orn]E([βAla-X1])[Dab][hLeu])”, the “PKB-kinase (spa) Assay 1, % inhibition of kinase activity” value (from here on “PKB-kinase (spa) Assay 1, % inhibition”) turned out to be 33% and the “PKB-kinase (spa) Assay 2, % inhibition of kinase activity” value (“PKB-kinase (spa) Assay 2, % inhibition” for short) is given as 41%.
`CC[C@H](NC(=O)[C@H](CO)NC(=O)[C@@H](NC(=O)[C@H](CCCNC(=N)N)NC(=O)[C@@H]1CCCN1C(=O)[C@@H](N)CCCNC(=N)N)[C@@H](C)O)C(=O)N[C@H](COC(=O)NCCNS(=O)(=O)c1cccc2cnccc12)Cc1ccccc1` [compound 6013] (H-RPRTS[Abu][X3]-{Ethylenediamine-Isoquinoline5sulfonyl}): for the setting “chimeric PTR compounds (peptide conjugated to isoquinoline small molecule), read-out: PKB IC50”, the IC50 stood at 4 µM.
Take “60020-53: Arg-Pro-Arg-Abu-Glu(Gly-5-aminoethylsulfonamide isoquinoline)-Ala-Phe (RPR[Abu]E([Gly-X1])AF)”: the “PKB-kinase (spa) Assay 1, % inhibition” value is on record as 20% and the “PKB-kinase (spa) Assay 2, % inhibition” value is 13%.
For `CCCC[C@H](NC(=O)[C@H](CO)NC(=O)[C@H](CO)NC(=O)[C@H](CCCC)NC(=O)[C@H](CCCNC(=N)N)NC(=O)[C@@H]1CCCN1C(=O)[C@@H](N)CCCNC(=N)N)C(N)=O` [AR 60003-62, Arg-Pro-Arg-Nle-Ser-Ser-Nle] (H-RPR[Nle]SS[Nle]-NH2), under “at 1 μM, Table 3, read-out: inhibition (PKB)”, the inhibition at 1 µM is 70%.
Consider “60020-56: Arg-Pro-Arg-Abu-Glu(Gly-5-aminoethylsulfonamide isoquinoline)-Nva-Hol (RPR[Abu]E([Gly-X1])[Nva][hLeu])”, for which the “PKB-kinase (spa) Assay 1, % inhibition” value was 20% and the “PKB-kinase (spa) Assay 2, % inhibition” value is given as 47%.
For the molecule “60020-81: Arg-Pro-Arg-Abu-Glu(bAla-5-aminoethylsulfonamide isoquinoline)-Dab-Phe (RPR[Abu]E([βAla-X1])[Dab]F)”, the “PKB-kinase (spa) Assay 1, % inhibition” value is listed as −17% and the “PKB-kinase (spa) Assay 2, % inhibition” value stood at 42%.
Take “60020-83: Arg-Pro-Arg-Abu-Glu(bAla-5-aminoethylsulfonamide isoquinoline)-Orn-Phe (RPR[Abu]E([βAla-X1])[Orn]F)”: the “PKB-kinase (spa) Assay 1, % inhibition” value is reported as −21% and the “PKB-kinase (spa) Assay 2, % inhibition” value stood at 60%.
In the same order, the values of “60020-22: Arg-Pro-Arg-Abu-Glu(5-aminoethylsulfonamide isoquinoline)-Ala-Hol (RPR[Abu]E(X1)A[hLeu])” are −5% and −2%.
For “60020-13: Arg-Pro-Arg-Orn-Glu(5-aminoethylsulfonamide isoquinoline)-Ala-Phe (RPR[Orn]E(X1)AF)”, in that order: 36% and 29%.
For “60020-21: Arg-Pro-Arg-Abu-Glu(5-aminoethylsulfonamide isoquinoline)-Ala-Phe (RPR[Abu]E(X1)AF)”, in that order: −2% and 6%.
As to “60020-75: Arg-Pro-Arg-Orn-Glu(bAla-5-aminoethylsulfonamide isoquinoline)-Orn-Phe (RPR[Orn]E([βAla-X1])[Orn]F)”, the “PKB-kinase (spa) Assay 1, % inhibition” value stood at 23% and the “PKB-kinase (spa) Assay 2, % inhibition” value turned out to be 35%.
With “60020-96: Arg-Pro-Arg-Nle-Glu(bAla-5-aminoethylsulfonamide isoquinoline)-Nva-Hol (RPR[Nle]E([βAla-X1])[Nva][hLeu])”, the “PKB-kinase (spa) Assay 1, % inhibition” value came to 0% and the “PKB-kinase (spa) Assay 2, % inhibition” value stood at 54%.
For “60020-69: Arg-Pro-Arg-Dap-Glu(bAla-5-aminoethylsulfonamide isoquinoline)-Ala-Phe (RPR[Dap]E([βAla-X1])AF)”, the “PKB-kinase (spa) Assay 1, % inhibition” value worked out at 36% and the “PKB-kinase (spa) Assay 2, % inhibition” value was found to be 57%.
For “60020-23: Arg-Pro-Arg-Abu-Glu(5-aminoethylsulfonamide isoquinoline)-Nva-Phe (RPR[Abu]E(X1)[Nva]F)”, in that order: −3% and −8%.
Regarding “60006-11B (RPR[Nva][GlyNH2][Dap][Ph2]; reading uncertain) [Compound 60006-11B]”, the “% Inhibition PKB I” value (plate screening, peptide moiety alone, PKB I) came out at 51%. For the same molecule, the “% Inhibition PKB II” value (plate screening, peptide moiety alone, PKB II) came out at 44%.
For the molecule “60020-63: Arg-Pro-Arg-Nle-Glu(Gly-5-aminoethylsulfonamide isoquinoline)-Nva-Phe (RPR[Nle]E([Gly-X1])[Nva]F)”, the “PKB-kinase (spa) Assay 1, % inhibition” value came out at 17% and the “PKB-kinase (spa) Assay 2, % inhibition” value came out at 19%.
For “60020-15: Arg-Pro-Arg-Orn-Glu(5-aminoethylsulfonamide isoquinoline)-Nva-Phe (RPR[Orn]E(X1)[Nva]F)”, in that order: 31% and 44%.
In the case of “60020-47: Arg-Pro-Arg-Orn-Glu(Gly-5-aminoethylsulfonamide isoquinoline)-Nva-Phe (RPR[Orn]E([Gly-X1])[Nva]F)”, the “PKB-kinase (spa) Assay 1, % inhibition” value turned out to be 21% and the “PKB-kinase (spa) Assay 2, % inhibition” value is on record as 33%.
Consider RPR[Orn]AT[Orn] [AR 60003-96], for which the “Activity PKB” value is reported as “Not active”.
For “60020-87: Arg-Pro-Arg-Abu-Glu(bAla-5-aminoethylsulfonamide isoquinoline)-Nva-Phe (RPR[Abu]E([βAla-X1])[Nva]F)”, the “PKB-kinase (spa) Assay 1, % inhibition” value is given as −50% and the “PKB-kinase (spa) Assay 2, % inhibition” value is 5%.
In the same order, the values of “60020-77: Arg-Pro-Arg-Orn-Glu(bAla-5-aminoethylsulfonamide isoquinoline)-Ala-Phe (RPR[Orn]E([βAla-X1])AF)” are 13% and 15%.
For “60020-27: Arg-Pro-Arg-Nle-Glu(5-aminoethylsulfonamide isoquinoline)-Orn-Phe (RPR[Nle]E(X1)[Orn]F)”, in that order: 63% and 25%.
For “60020-85: Arg-Pro-Arg-Abu-Glu(bAla-5-aminoethylsulfonamide isoquinoline)-Ala-Phe (RPR[Abu]E([βAla-X1])AF)”, in that order: −27% and −2%.
For “60020-17: Arg-Pro-Arg-Abu-Glu(5-aminoethylsulfonamide isoquinoline)-Dab-Phe (RPR[Abu]E(X1)[Dab]F)”, the “PKB-kinase (spa) Assay 1, % inhibition” value was 34% and the “PKB-kinase (spa) Assay 2, % inhibition” value was determined as 38%.
For “60020-71: Arg-Pro-Arg-Dap-Glu(bAla-5-aminoethylsulfonamide isoquinoline)-Nva-Phe (RPR[Dap]E([βAla-X1])[Nva]F)”, in that order: 32% and 46%.
In the same order, the values of “60020-90: Arg-Pro-Arg-Nle-Glu(bAla-5-aminoethylsulfonamide isoquinoline)-Dab-Hol (RPR[Nle]E([βAla-X1])[Dab][hLeu])” are 19% and 27%.
Turning to “RPRRSSR [AR 60003-64, Arg-Pro-Arg-Arg-Ser-Ser-Arg]”, the “Activity PKB” value is recorded as “Not active”.
